Source: patent US9493557B2, “Chemokine binding polypeptides for treating autoimmunity and inflammation” (Biokine Therapeutics Ltd., priority 2009, dated 2016)

Experiments:
Format in all cases: cell-based
SDF-1 = target: T1, SDF-1 (Homo sapiens, UniProt P48061); experiment: In vitro T cell adhesion to VCAM-1 induced by SDF-1 under shear flow; details: 10 μg/ml peptide; T cells on VCAM-1 under shear flow
T1 construct: purchased PeproTech
Description: (§1) 50 ml of blood was added to 10 ml of a solution of Dextran T-500 (6% w/v) in PBS (phosphate buffer saline), and 7 ml of citrate buffer (25 grams citrate, 8 grams citric acid in 500 ml PBS). The solution was incubated for 30 minutes at 25° C. 10 ml of Ficoll 1077 was added to the bottom of the tube. The tube was then centrifuged at 2,000 rotations per minute for 30 minutes at 18° C. (with the brake mode of the centrifuge off). The interphase was collected and washed twice with 8 ml PBS with 5% FCS (fetal calf serum), followed by centrifugation at 1,400 rotations per minute for 5 minutes at 18° C. The cells were re-suspended in PBS with 5% FCS at a concentration less then 10^8 per ml. […]
(§2) In order to perform lysis of the erythrocytes, the red pellet was re-suspended in 5 ml of lysis-buffer (155 mM NH4Cl, 10 mM KHCO3, 0.1 mM EDTA, X0.1 PBS) for 4 minutes, followed by immediate addition of 50 ml of PBS with EDTA. […] The cells were ready for use in experiments after overnight incubation at 37° C. […]
(§3) The plates were then assembled as the lower wall of a parallel wall flow chamber and mounted on the stage of an inverted microscope. […] The number of adherent cells resisting detachment by the elevated shear forces was determined after each interval by analysis of videotaped cell images, and was expressed as the percent of originally settled cells. […]

IL-8 = target: T2, IL-8 (Homo sapiens, UniProt P10145); experiment: In vitro T cell adhesion to VCAM-1 induced by IL-8 under shear flow; details: 10 μg/ml peptide; T cells on VCAM-1 under shear flow
T2 construct: purchased PeproTech
T2 sequence (P10145 21-99): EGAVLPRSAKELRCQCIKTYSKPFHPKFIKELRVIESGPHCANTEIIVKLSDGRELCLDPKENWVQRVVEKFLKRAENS
Description: as §1, §2, §3

IP-10 = target: T3, IP-10 (Homo sapiens, UniProt P02778); experiment: In vitro T cell adhesion to VCAM-1 induced by IP-10 under shear flow; details: for Inhibition of chemokine-dependent T cell adhesion: IP-10: 10 μg/ml peptide, T cells on VCAM-1 under shear flow
T3 construct: purchased PeproTech
T3 sequence (P02778 22-98): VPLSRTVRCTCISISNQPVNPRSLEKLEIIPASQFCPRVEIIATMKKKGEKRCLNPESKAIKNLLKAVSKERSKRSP
Description: (§4) 50 ml of blood was added to 10 ml of a solution of Dextran T-500 (6% w/v) in PBS (phosphate buffer saline), and 7 ml of citrate buffer (25 grams citrate, 8 grams citric acid in 500 ml PBS). The solution was incubated for 30 minutes at 25° C. 10 ml of Ficoll 1077 was added to the bottom of the tube. The tube was then centrifuged at 2,000 rotations per minute for 30 minutes at 18° C. (with the brake mode of the centrifuge off). The interphase was collected and washed twice with 8 ml PBS with 5% FCS (fetal calf serum), followed by centrifugation at 1,400 rotations per minute for 5 minutes at 18° C. The cells were re-suspended in PBS with 5% FCS at a concentration less then 10^8 per ml. 2 ml of the cell solution were applied on a poly(methyl methacrylate) nylon wool column which was pre-soaked in PBS-5% FCS, and then incubated for 45 minutes at 25° C. Each column was washed with 8 ml PBS-5% FCS and the cells (T-cells and erythrocytes) were eluted by 50 ml of 5 mM EDTA (ethylenediaminetetraacetic acid) in PBS. A red pellet was obtained by centrifugation at 1,400 rotations per minute for 5 minutes at 4° C. (with the brake on).
as §2, with “EDTA. Following centrifugation at 1,400 rotations per minute for 5 minutes at 4° C., the pellet was washed again with 50 ml PBS-EDTA and re-centrifuged under the same conditions.” for “EDTA.”
as §3

Eotaxin = target: T4, Eotaxin (Homo sapiens, UniProt P51671); experiment: In vitro T cell adhesion to VCAM-1 induced by eotaxin under shear flow; details: for Inhibition of chemokine-dependent T cell adhesion: Eotaxin: 10 μg/ml peptide, T cells on VCAM-1 under shear flow
T4 construct: purchased PeproTech
Description: as §4
as §2, with “EDTA. Following centrifugation at 1,400 rotations per minute for 5 minutes at 4° C., the pellet was washed again with 50 ml PBS-EDTA and re-centrifuged under the same conditions.” for “EDTA.”
as §3

I-TAC = target: T5, I-TAC (Homo sapiens, UniProt O14625); experiment: In vitro T cell adhesion to VCAM-1 induced by I-TAC under shear flow; details: for Inhibition of chemokine-dependent T cell adhesion: I-TAC: 10 μg/ml peptide, T cells on VCAM-1 under shear flow; for T cell adhesion induced by I-TAC (result in words): T cells on VCAM-1
T5 construct: purchased PeproTech
T5 sequence (O14625 22-94): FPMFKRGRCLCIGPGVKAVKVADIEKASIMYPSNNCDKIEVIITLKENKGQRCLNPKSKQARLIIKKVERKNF
Description: as §4
(§5) In order to perform lysis of the erythrocytes, the red pellet was re-suspended in 5 ml of lysis-buffer (155 mM NH4Cl, 10 mM KHCO3, 0.1 mM EDTA, X0.1 PBS) for 4 minutes, followed by immediate addition of 50 ml of PBS with EDTA. Following centrifugation at 1,400 rotations per minute for 5 minutes at 4° C., the pellet was washed again with 50 ml PBS-EDTA and re-centrifuged under the same conditions. A white pellet was obtained and re-suspended in RPMI medium with 10% FCS, L-glutamine, sodium pyruvate and antibiotics at a concentration of 3×10^6 cells per ml. The cells were incubated for 2 hours at 37° C., followed by collection of the non-adherent cells. The cells were ready for use in experiments after overnight incubation at 37° C.
(§6) 10 μg/ml of human VCAM-1 and 2 μg/ml of a chemokine (intact MIG, IP-10, I-TAC, MCP-1, RANTES, SDF-1 (stromal cell-derived factor-1), BCA-1 (B lymphocyte chemoattractant-1), IL-8 (interleukin-8) or eotaxin, or heat-inactivated SDF-1 as a control) were dissolved in PBS buffered with 20 mM bicarbonate (pH 8.5), and incubated in polystyrene plates overnight at 4° C. Alternatively, 10 μg/ml of the chemokine was used, and the plates were incubated for 30 minutes at room temperature. […]
as §3

MCP-1 = target: T6, MCP-1 (Homo sapiens, UniProt P13500); experiment: In vitro T cell adhesion to VCAM-1 induced by MCP-1 under shear flow; details: for Inhibition of chemokine-dependent T cell adhesion: MCP-1: 10 μg/ml peptide, T cells on VCAM-1 under shear flow; for T cell adhesion induced by MCP-1 (result in words): T cells on VCAM-1
T6 construct: purchased PeproTech
Description: as §4, §5, §6, §3

RANTES = target: T7, RANTES (Homo sapiens, UniProt P13501); experiment: In vitro T cell adhesion to VCAM-1 induced by RANTES under shear flow; details: for Inhibition of chemokine-dependent T cell adhesion: RANTES: 10 μg/ml peptide, T cells on VCAM-1 under shear flow; for T cell adhesion induced by RANTES (result in words): T cells on VCAM-1
T7 construct: purchased PeproTech
T7 sequence (P13501 24-91): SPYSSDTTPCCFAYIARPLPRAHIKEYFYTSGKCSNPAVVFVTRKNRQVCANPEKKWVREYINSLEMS
Description: as §4, §5, §6, §3

MIG = target: T8, MIG (Homo sapiens, UniProt Q07325); experiment: In vitro T cell adhesion to VCAM-1 induced by MIG under shear flow; details: for Inhibition of chemokine-dependent T cell adhesion: MIG: 10 μg/ml peptide, T cells on VCAM-1 under shear flow
T8 construct: purchased PeproTech
T8 sequence (Q07325 23-125): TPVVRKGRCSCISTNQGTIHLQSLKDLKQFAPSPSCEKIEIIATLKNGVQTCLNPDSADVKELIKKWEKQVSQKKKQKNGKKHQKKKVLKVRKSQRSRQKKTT
Description: as §4
In order to perform lysis of the erythrocytes, the red pellet was re-suspended in 5 ml of lysis-buffer (155 mM NH4Cl, 10 mM KHCO3, 0.1 mM EDTA, X0.1 PBS) for 4 minutes, followed by immediate addition of 50 ml of PBS with EDTA. Following centrifugation at 1,400 rotations per minute for 5 minutes at 4° C., the pellet was washed again with 50 ml PBS-EDTA and re-centrifuged under the same conditions. […] The cells were ready for use in experiments after overnight incubation at 37° C. […]
as §3

BCA-1 = target: T9, BCA-1 (Homo sapiens, UniProt O43927); experiment: In vitro T cell adhesion to VCAM-1 induced by BCA-1 under shear flow; details: 10 μg/ml peptide; T cells on VCAM-1 under shear flow
T9 sequence (O43927 23-109): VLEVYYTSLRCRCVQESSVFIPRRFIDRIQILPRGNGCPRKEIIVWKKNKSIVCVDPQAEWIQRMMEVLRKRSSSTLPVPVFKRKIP
Description: as §1, §2, §3

T6 sequence (P13500 24-99): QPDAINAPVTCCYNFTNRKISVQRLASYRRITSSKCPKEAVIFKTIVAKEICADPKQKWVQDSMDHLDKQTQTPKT
T1 sequence (P48061 22-89 limits assumed): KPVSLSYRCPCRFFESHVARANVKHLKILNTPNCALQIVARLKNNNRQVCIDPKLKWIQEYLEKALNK

Inhibition of chemokine-dependent T cell adhesion: SDF-1 (SDF-1)	Inhibition of chemokine-dependent T cell adhesion: IL-8 (IL-8)	Inhibition of chemokine-dependent T cell adhesion: IP-10 (IP-10)	Inhibition of chemokine-dependent T cell adhesion: Eotaxin (Eotaxin)	Inhibition of chemokine-dependent T cell adhesion: I-TAC (I-TAC)	T cell adhesion induced by I-TAC (result in words) (I-TAC)	Inhibition of chemokine-dependent T cell adhesion: MCP-1 (MCP-1)	T cell adhesion induced by MCP-1 (result in words) (MCP-1)	Inhibition of chemokine-dependent T cell adhesion: RANTES (RANTES)	T cell adhesion induced by RANTES (result in words) (RANTES)	Inhibition of chemokine-dependent T cell adhesion: MIG (MIG)	T cell adhesion induced by MIG (result in words) (MIG; T cells on VCAM-1)	T cell adhesion induced by IP-10 (result in words) (IP-10; T cells on VCAM-1)	T cell adhesion induced by eotaxin (result in words) (Eotaxin; T cells on VCAM-1)	Inhibition of chemokine-dependent T cell adhesion: BCA-1 (BCA-1)	Sequence
− (− = no inhibition)	− (− = no inhibition)	− (− = no inhibition)	− (− = no inhibition)	++ (++ = 100% inhibition)	inhibited	++ (++ = 100% inhibition)	inhibited	++ (++ = 100% inhibition)	inhibited	++ (++ = 100% inhibition)	inhibited				LDYPIPQTVLHH [BKT-P46, reference compound]
− (− = no inhibition)		++ (++ = 100% inhibition)	++ (++ = 100% inhibition)	++ (++ = 100% inhibition)	inhibited	++ (++ = 100% inhibition)	inhibited	++ (++ = 100% inhibition)	inhibited	− (− = no inhibition)		inhibited	inhibited	− (− = no inhibition)	SIPSHSIHSAKA [BKT-P2, reference compound]
